# Assay results taken from PMC6476982, “The CXXC Motifs Are Essential for the Function of BosR in Borrelia burgdorferi” (Frontiers in Cellular and Infection Microbiology, 2019).
# Target: the molecule itself
# Assay: SEC; HiLoad 16/60 Superdex 200 prep grade column on an Äkta FPLC in buffer A (20 mM Hepes, 300 mM NaCl, 100 mM L-arginine, 1 mM TCEP, pH 7.0); molecular weight from a calibration curve of gel filtration standards; self-association, dimer or monomer
protein,measurement,value
"recombinant BosR with a C-terminal Strep-II tag (WT rBosR-StrepII) (natural protein, BosR (Fur family member), Borrelia burgdorferi strain 297, ORF bb0647; bosR amplified with primers from the ATG start codon to the last codon before the stop, fused directly to the Strep-II tag; theoretical MW of rBosR-StrepII 21.25 kDa; also called pOY436; source: E. coli M15 (pREP4), purified (Strep-Tactin resin, Superdex 200 FPLC)) MNDNIIDVHSALEKVGITNDPVLLKNLTSELGMKASHSRNRIILYIASNPKEYFTAKEVYNKLIKEIPSLSKATVYNTLNILKERNILKDIKTTDQKETKFYLSLASTIAHFKCNKCNQVHPIQLDDIKDILKDKLGENWETKSIEIIYSGHCNNCYKKDTHNNNNVPDENKEITL",stoichiometry N,2
